From doi:10.1101/2022.10.21.513107 (bioRxiv, 2022)
Substitutions are numbered along the chain they refer to.

B1: sdAb 2A03 (VHH)
VHH: QVQLVESGGGLVQAGGSLRLSCAASGRTSSINIMGWYRQPPGKQREMVATIATGGTTNYAESVKGRFTISRDGAKFVYLQLNDLKPEDTAVYYCNAYRYAVGKNQRAWDIWGQGTQVTVSS
B2: sdAb C26 (VHH)
VHH: QVQLVESGGGLVQAGGSLRLSCAASGSIYSINAMGWYRQAPGKQRELVAVITSSGSTNYADAVKGRFTISRDNAKNQVYLQMNSLKPEDTAVYYCHAWSPFRGSFSGDALDAWGQGTQVTVSS
B3: sdAb A37 (VHH)
VHH: QVKLEESGGGLVQAGGSLRLSCVASGSTFIITDMAWYRQAPGKQRELVAGITLRGGTNYADSVKGRFTISRDNVKNTVTLQMNSLKPEDTAVYYCNAKVAEWRNRPDYWGQGTQVTVSS
B4: sdAb C38 (VHH)
VHH: QVQLVESGGGVVQAGGSLRLSCAPSGNIFSINTMGWHRQAPGKQREFVARIRSSGQTNYADSVKGRFTISKDSAKDTVYLQMDNLQPEDSAVYYCTFNSGGWGVERKRRDYWGQGTQVTVSS
B5: sdAb 2A04 (VHH)
VHH: B4 VHH with Q3K, V5E, S90T, S99T, K107Q

Legend:
[1] = biological target: endogenous HPV16 E6 protein of SiHa cells (Human papillomavirus type 16, SiHa …, UniProt P03126); experiment: immunostaining of cells or tissue
[2] = biological target: His6MBP-4C/4S E6 (Human papillomavirus type 16, reference …, UniProt P03126, stabilised); experiment: far-Western, overlay or dot blot

Binder	binding result [1]	binding result [2]
B1	binds	–
B2	binds	–
B3	binds	–
B4	–	binds
B5	binds	–
